Test results: patent US20110144037A1 (BOARD OF REGENTS OF THE UNIVERSITY OF OKLAHOMA, published 2011)
Where no end group is shown, it is not given here. [ ]: non-standard residue; d: D form. Pip = O=C(O)[C@@H]1CCCCN1; AEEA = NCCOCCOCC(=O)O

T1: antiplasmin-cleaving enzyme (APCE) (human, UniProt Q12884 24-760, Natural plasma glycoprotein; glycans are not carried by the letters. The active enzyme is known as a homodimer; one chain is given.)
T1 construct: The range 24-760 is derived from the statement that APCE lacks the first 23 residues of FAP; also called α2-antiplasmin cleaving enzyme; APCE/FAP
T1 sequence: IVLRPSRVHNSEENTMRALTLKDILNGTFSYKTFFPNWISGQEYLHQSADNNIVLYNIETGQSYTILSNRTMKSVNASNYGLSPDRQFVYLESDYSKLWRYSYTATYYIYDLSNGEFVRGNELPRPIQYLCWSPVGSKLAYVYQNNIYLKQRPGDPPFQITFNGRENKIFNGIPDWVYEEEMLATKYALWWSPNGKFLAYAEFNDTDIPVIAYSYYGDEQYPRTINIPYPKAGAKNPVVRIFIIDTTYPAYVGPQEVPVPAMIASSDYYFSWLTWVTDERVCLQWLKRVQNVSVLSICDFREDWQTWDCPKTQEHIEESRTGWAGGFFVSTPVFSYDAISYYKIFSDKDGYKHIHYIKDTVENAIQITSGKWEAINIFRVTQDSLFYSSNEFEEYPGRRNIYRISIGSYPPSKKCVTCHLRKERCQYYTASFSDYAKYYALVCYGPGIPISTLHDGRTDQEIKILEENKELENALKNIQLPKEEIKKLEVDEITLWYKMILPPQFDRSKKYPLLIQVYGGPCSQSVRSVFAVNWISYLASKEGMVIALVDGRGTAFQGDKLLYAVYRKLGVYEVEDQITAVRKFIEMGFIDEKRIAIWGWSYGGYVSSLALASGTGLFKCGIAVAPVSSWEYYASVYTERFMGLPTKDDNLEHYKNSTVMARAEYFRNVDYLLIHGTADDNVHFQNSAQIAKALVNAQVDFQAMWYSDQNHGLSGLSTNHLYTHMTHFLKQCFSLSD


Tests used:
[1] = target: T1, antiplasmin-cleaving enzyme (APCE); test: inhibition of APCE activity, AMC fluorogenic substrate
[2] = target: dipeptidyl peptidase IV (DPPIV); test: inhibition of DPPIV activity, AMC fluorogenic substrate
[3] = target: dipeptidyl peptidase IV (DPPIV); test: ratio of Ki for DPPIV to Ki for APCE/FAP
[4] = target: T1, antiplasmin-cleaving enzyme (APCE); test: inhibition of APCE activity, AMC fluorogenic substrate, competitive fit
Method: Enzyme assays. APCE or DDPIV was incubated in 25 mM sodium phosphate buffer, pH 7.5, containing 1.0 mM EDTA and 4% methanol in a total volume of 200 μl for 20 min at 22° C., using fluorescent substrates […]-AMC (SEQ ID NO.:4) (12.5-100 μM); […]-AMC (SEQ ID NO.:5) (12.5-100 μM); Z-Gly-Pro-AMC (25-200 μM); or GP-AMC (62.5-1000 μM). […] Fluorescence was monitored with time at excitation and emission wavelengths of 360 and 460 nm using a black-sided, 96-well plate in a BIO-TEK FL600 fluorescence plate reader. For standard curves, dilutions of AMC (7-amino-4-methylcoumarin) were prepared in the same assay buffer and corresponding fluorescence was measured. The substrates in five different concentrations were mixed with four different concentrations of inhibitors around the expected Ki values; the enzyme was added and enzymatically released AMC fluorescence was recorded. Competitive inhibition was established by Lineweaver-Burk plot. Therefore, enzyme kinetic parameters were computed by fitting data to the following equation, employing the program PRISM, GraphPad: […]

Chain of dipeptidyl peptidase IV (DPPIV) (P27487 29-766): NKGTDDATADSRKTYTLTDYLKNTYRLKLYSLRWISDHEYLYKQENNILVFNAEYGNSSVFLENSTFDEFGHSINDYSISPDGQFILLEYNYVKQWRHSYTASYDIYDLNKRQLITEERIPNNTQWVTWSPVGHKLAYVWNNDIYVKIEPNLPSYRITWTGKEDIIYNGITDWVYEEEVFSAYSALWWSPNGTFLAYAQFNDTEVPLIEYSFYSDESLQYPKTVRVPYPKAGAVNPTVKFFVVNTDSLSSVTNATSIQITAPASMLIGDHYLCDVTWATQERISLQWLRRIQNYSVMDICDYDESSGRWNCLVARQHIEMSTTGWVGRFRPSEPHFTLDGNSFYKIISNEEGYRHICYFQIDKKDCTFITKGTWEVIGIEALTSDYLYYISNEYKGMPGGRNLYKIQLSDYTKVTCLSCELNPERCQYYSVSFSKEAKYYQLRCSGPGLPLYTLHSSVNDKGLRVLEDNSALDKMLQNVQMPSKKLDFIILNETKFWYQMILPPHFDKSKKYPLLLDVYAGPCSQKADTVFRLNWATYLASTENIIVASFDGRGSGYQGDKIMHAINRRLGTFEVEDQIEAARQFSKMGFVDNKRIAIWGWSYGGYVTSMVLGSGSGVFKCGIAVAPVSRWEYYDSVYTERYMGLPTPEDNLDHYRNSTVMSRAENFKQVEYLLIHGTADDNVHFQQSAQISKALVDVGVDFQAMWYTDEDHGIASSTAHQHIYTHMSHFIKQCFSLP

Row | Molecule | Ki [1] [nM] | Ki [2] [nM] | Selectivity, Ki (DPPIV)/Ki (APCE/FAP) [3] | Ki [4] [nM]
1 | Ac-Arg-Gly-Gly-L-boroPro (peptide) | 17.2 | 322 | 18.7 | –
2 | Ac-Arg-peg-D-Ala-DL(50:50%)-boroPro (peptide) | 9.5 | 11200 | 1180 | –
3 | Ac-Arg-peg-D-Ala-DL(25:75%)-boroPro (peptide) | 7.7 | – | – | –
4 | Ac-Arg-peg-Gly-L-boroPro (peptide) | 1.8 | 440 | 244 | –
5 | FR-peg-G-[s]fluoropyrrolidide (peptide) | – | – | – | 55300
6 | Ac-Arg-peg-Gly-DL-boroPro (peptide) | 3.1 | 1150 | 371 | –
7 | Ac-Arg-peg-D-Ala-DL(75:25%)-boroPro (peptide) | 18.3 | – | – | –
8 | Ac-Arg-peg-D-Ala-D-boroPro (peptide) | 189 | 20500 | 108 | –
9 | FR-peg-G-[r]fluoropyrrolidide (peptide) | – | – | – | 53800
10 | FRQLTSG[Pip]NQEQV-OH (N-terminus assumed; SMILES CC(C)C[C@H](NC(=O)[C@H](CCC(N)=O)NC(=O)[C@H](CCCNC(=N)N)NC(=O)[C@@H](N)Cc1ccccc1)C(=O)N[C@H](C(=O)N[C@@H](CO)C(=O)NCC(=O)N1CCCC[C@H]1C(=O)N[C@@H](CC(N)=O)C(=O)N[C@@H](CCC(N)=O)C(=O)N[C@@H](CCC(=O)O)C(=O)N[C@@H](CCC(N)=O)C(=O)N[C@H](C(=O)O)C(C)C)[C@@H](C)O) [FRQLTS-G pipecolinyl-NQEQV] | – | – | – | 14000
11 | FR[AEEA]G[Pip]NQEQV-OH (N-terminus assumed; SMILES CC(C)[C@H](NC(=O)[C@H](CCC(N)=O)NC(=O)[C@H](CCC(=O)O)NC(=O)[C@H](CCC(N)=O)NC(=O)[C@H](CC(N)=O)NC(=O)[C@@H]1CCCCN1C(=O)CNC(=O)COCCOCCNC(=O)[C@H](CCCNC(=N)N)NC(=O)[C@@H](N)Cc1ccccc1)C(=O)O) [FR-peg-G-pipecolinyl-NQEQV] | – | – | – | 14800
12 | FG[AEEA]G[Pip]NQEQV-OH (N-terminus assumed; SMILES CC(C)[C@H](NC(=O)[C@H](CCC(N)=O)NC(=O)[C@H](CCC(=O)O)NC(=O)[C@H](CCC(N)=O)NC(=O)[C@H](CC(N)=O)NC(=O)[C@@H]1CCCCN1C(=O)CNC(=O)COCCOCCNC(=O)CNC(=O)[C@@H](N)Cc1ccccc1)C(=O)O) [FG-peg-G-pipecolinyl-NQEQV] | – | – | – | 57100

More lines, now with the values ahead:

Row | Ki [1] [nM] | Ki [2] [nM] | Selectivity, Ki (DPPIV)/Ki (APCE/FAP) [3] | Ki [4] [nM] | Molecule
13 | 1380 | 7130 | 5.2 | – | Ac-Arg-peg-D-Asp-L-boroPro (peptide)
14 | – | – | – | 264000 | FR-peg-G-piperidide (peptide)
15 | 5.7 | 6130 | 1080 | – | Ac-Arg-(8-amino-3,6-dioxaoctanoyl)-D-Ala-L-boroPro (peptide)
16 | 20.7 | 314 | 15.2 | – | Ac-Gly-L-boroPro (peptide)
17 | 2.7 | 861 | 319 | – | Ac-Arg-peg-Ser-Gly-L-boroPro (peptide)
18 | 22.9 | 341 | 14.9 | – | Ac-Arg-Gly-Gly-DL-boroPro (peptide)
19 | – | – | – | 703000 | FG-peg-G-pyrrolidide (peptide)
20 | – | – | – | 67700 | FR-peg-G-pyrrolidide (peptide)
21 | – | – | – | 14500 | FR[AEEA]G[Pip]NQGQV-OH (N-terminus assumed; SMILES CC(C)[C@H](NC(=O)[C@H](CCC(N)=O)NC(=O)CNC(=O)[C@H](CCC(N)=O)NC(=O)[C@H](CC(N)=O)NC(=O)[C@@H]1CCCCN1C(=O)CNC(=O)COCCOCCNC(=O)[C@H](CCCNC(=N)N)NC(=O)[C@@H](N)Cc1ccccc1)C(=O)O) [FR-peg-G-pipecolinyl-NQGQV]
